Measured values reported in PMC5084080.

Target: LarB1-His (Rhodococcus jostii)
Experiment: BLI

Kd: 440 nM
Substance: LarA-MBP (from UniProt H7C8I3 1-46) (natural protein)
